From patent publication US20210355178A1 (UNIVERSIT T ULM, published 2021)

What was measured:
[1] = molecular target: T1, complement factor C3b (UniProt P01024 23-667; P01024 749-1663); assay: SPR, C3b amine-coupled (4030 RU), 1:1 steady-state affinity fit
From the text: FIG. 3: C3b binding activity of miniFH and Fc-fusion variants of miniFH. Surface plasmon resonance (SPR) sensorgrams for C3b binding of miniFH (A), miniFH-Fc (C), Fc-miniFH (E) and Fc-miniFH-short (G) (assayed at a concentration range as specified; 4030 RU of C3b were deposited by amine). (B) Respective concentration response plots with fitted affinity (1:1 steady-state affinity fit) for C3b binding of miniFH (B), miniFH-Fc (D), Fc-miniFH (F) and Fc-miniFH-short (H) are shown. The affinity equilibrium constant is stated in the panes.
Surface plasmon resonance experiments were performed at 25° C. on a Reichert SR7500DC SPR instrument in PBS containing 0.005% Tween20 at a flow of 25 μl/min. 4030 response units (RU) of C3b were immobilized onto a carboxymethyldextran (CMD) 500 sensor chip (Xantec) and binding to amine coupled C3b was assayed. The analytes were injected at the indicated concentrations. To probe binding, a concentration series of miniFH or Fc fusions of miniFH were injected (at 25 μl/min for 2.5 min) followed by buffer flow for 300 s and a regeneration step consisting of an injection of 1 M NaCl for 30 s. The highest concentration of each series was injected twice to assess reproducibility. […]

[2] = molecular target: T1, complement factor C3b; assay: SPR, C3b amine-coupled (5610 RU), DAF-Fc as analyte
Description: 2600 RU of Bb were deposited by standard amine coupling onto a carboxymethyldextran sensorchip. Running buffer was PBS supplemented with 1 mM MgCl2 and 0.005% Tween 20. […] 5610 RU of C3b were deposited by standard amine coupling onto a carboxymethyldextran sensorchip. Running buffer was PBS supplemented with 1 mM MgCl2 and 0.005% Tween 20.

T1 sequence (P01024 23-667 limits assumed, chain 1 of 2): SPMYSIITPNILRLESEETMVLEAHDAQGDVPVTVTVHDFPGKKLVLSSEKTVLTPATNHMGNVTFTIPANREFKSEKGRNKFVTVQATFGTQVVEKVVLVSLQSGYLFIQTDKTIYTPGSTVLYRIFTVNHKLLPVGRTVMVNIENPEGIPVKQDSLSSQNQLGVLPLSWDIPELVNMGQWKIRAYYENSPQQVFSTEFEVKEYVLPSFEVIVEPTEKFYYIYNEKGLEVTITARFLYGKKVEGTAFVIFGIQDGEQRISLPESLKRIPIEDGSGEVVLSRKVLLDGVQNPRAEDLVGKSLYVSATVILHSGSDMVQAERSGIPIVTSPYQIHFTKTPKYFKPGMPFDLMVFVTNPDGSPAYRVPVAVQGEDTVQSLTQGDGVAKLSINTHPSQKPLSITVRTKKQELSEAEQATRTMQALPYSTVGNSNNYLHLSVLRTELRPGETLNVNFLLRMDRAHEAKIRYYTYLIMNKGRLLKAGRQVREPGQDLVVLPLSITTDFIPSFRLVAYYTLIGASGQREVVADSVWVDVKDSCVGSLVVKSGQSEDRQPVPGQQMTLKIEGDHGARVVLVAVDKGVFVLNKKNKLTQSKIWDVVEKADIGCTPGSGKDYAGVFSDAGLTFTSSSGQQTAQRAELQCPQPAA
T1 sequence (P01024 749-1663 limits assumed, chain 2 of 2): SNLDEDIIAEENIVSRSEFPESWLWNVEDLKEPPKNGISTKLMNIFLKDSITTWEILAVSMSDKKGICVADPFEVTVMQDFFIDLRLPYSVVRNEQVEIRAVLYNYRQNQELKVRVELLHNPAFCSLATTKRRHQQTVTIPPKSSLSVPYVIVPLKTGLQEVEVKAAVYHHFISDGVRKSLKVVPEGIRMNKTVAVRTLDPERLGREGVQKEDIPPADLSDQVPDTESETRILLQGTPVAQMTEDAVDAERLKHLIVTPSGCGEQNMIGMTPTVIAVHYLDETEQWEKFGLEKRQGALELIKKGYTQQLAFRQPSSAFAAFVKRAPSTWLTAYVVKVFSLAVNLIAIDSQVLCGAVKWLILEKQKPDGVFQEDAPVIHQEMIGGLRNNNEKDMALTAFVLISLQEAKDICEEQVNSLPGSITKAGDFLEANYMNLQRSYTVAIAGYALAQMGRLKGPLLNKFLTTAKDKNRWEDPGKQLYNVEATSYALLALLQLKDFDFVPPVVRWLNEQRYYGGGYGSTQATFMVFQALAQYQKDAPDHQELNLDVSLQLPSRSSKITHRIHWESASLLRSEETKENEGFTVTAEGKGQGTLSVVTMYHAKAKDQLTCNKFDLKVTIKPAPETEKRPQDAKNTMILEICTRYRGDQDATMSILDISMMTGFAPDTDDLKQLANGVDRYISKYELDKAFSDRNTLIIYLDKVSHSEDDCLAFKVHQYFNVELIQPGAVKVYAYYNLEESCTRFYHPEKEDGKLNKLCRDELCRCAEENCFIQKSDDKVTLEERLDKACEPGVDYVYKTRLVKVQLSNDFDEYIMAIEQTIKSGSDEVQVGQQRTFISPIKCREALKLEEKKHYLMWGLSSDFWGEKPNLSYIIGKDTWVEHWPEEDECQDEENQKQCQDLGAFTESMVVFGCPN

| Binder | fold increased affinity over miniFH [1] [fold] | binding result [2] |
| --- | --- | --- |
| miniFH-Fc (Fc fusion, Produced in Pichia pastoris) EDCNELPPRRNTEILTGSWSDQTYPEGTQAIYKCRPGYRSLGNIIMVCRKGEWVALNPLRKCQKRPCGHPGDTPFGTFTLTGGNVFEYGVKAVYTCNEGYQLLGEINYRECDTDGWTNDIPICEVVKCLPVTAPENGKIVSSAMEPDREYHFGQAVRFVCNSGYKIEGDEEMHCSDDGFWSKEKPKCVEISCKSPDVINGSPISQKIIYKENERFQYKCNMGYEYSERGDAVCTESGWRPLPSCEEAGGGGGGGGGGGGGKCGPPPPIDNGDITSFPLSVYAPASSVEYQCQNLYQLEGNKRITCRNGQWSEPPKCLHPCVISREIMENYNIALRWTAKQKLYSRTGESVEFVCKRGYRLSSRSHTLRTTCWDGKLEYPTCAGPGGGGGPGCPAPELLGGPSVFLFPPKPKDTLMISRTPEVTCVVVDVSHEDPEVKFNWYVDGVEVHNAKTKPREEQYQSTYRVVSVLTVLHQDWLNGKEYKCKVSNKALPAPIEKTISKAKGQPREPQVYTLPPSREEMTKNQVSLTCLVKGFYPSDIAVEWESNGQPENNYKTTPPVLDSDGSFFLYSKLTVDKSRWQQGNVFSCSVMHEALHNHYTQKSLSLSPGGGGGGG | ~2 | – |
| DAF-Fc (Fc fusion, not shown: Fc module at the C-terminus) DCGLPPDVPNAQPALEGRTSFPEDTVITYKCEESFVKIPGEKDSVICLKGSQWSDIEEFCNRSCEVPTRLNSASLKQPYITQNYFPVGTVVEYECRPGYRREPSLSPKLTCLQNLKWSTAVEFCKKKSCPNPGEIRNGQIDVPGGILFGATISFSCNTGYKLFGSTSSFCLISGSSVQWSDPLPECREIYCPAPPQIDNGIIQGERDHYGYRQSVTYACNKGFTMIGEHSIYCTVNNDEGEWSGPPPECRGGGGGGPGCPAPELLGGPSVFLFPPKPKDTLMISRTPEVTCVVVDVSHEDPEVKFNWYVDGVEVHNAKTKPREEQYQSTYRVVSVLTVLHQDWLNGKEYKCKVSNKALPAPIEKTISKAKGQPREPQVYTLPPSREEMTKNQVSLTCLVKGFYPSDIAVEWESNGQPENNYKTTPPVLDSDGSFFLYSKLTVDKSRWQQGNVFSCSVMHEALHNHYTQKSLSLSPGGGGGGG | – | no binding |
